# Data reported in patent US20150232576A1 (published 2015).
# Key:
# calmodulin (CaM) [1] = biological target: T1, calmodulin (CaM) (UniProt P0DP23 2-149); experiment: BLI, biotinylated CaM on streptavidin sensors, eNOS analyte, global single-state model
# [2] = biological target: T2, ERK-2 (extracellular signal-regulated kinase 2) (UniProt P28482 1-360, limits assumed, biotinylated for immobilisation on streptavidin sensors); experiment: BLI, immobilised ERK-2, single component fit
# T2 construct: Bought protein; also called ERK1/2
# Method: NOSs were expressed and purified as known in the art (22-24). Heme and flavin content were estimated spectrophotometrically, and activity assayed by following NADPH consumption at 340 nm (23, 24). eNOS NO synthase activity and cytochrome c reduction were assayed as known in the art (25, 26), the concentration of CaM was reduced to 0.6 μM because of potential competition between CaM and p38. Phosphorylated His-p38 was expressed as known in the art (26) and was purified using Talon™ resin as directed by the manufacturer. ERK-2 was purchased from PROSPEC (NJ). Biolayer interferometry (27) measurements were made on a ForteBio (Menlo Park Calif.) Octet QK biosensor using streptavidin sensors. Assays were performed in 200 μL volumes at 25° C. p38 and ERK were biotinylated as known in the art (21). Biotinylated kinases were loaded onto sensors for 600 s. After establishing baseline response, kinases were exposed to analyte eNOS or nNOS at a range of concentrations. Baseline, association, and dissociation phases were all performed in NOS buffer (10 mM phosphate, pH 7.5, 100 mM NaCl, 10% glycerol, 0.005% surfactant P-20, 10 uM CaCl₂). Association and dissociation were monitored as nm shift. Nonspecific binding of analytes to sensors without ligand was negligible and so was not subtracted.
# The concentration dependence was similar to that of the binding of eNOS to p38. […]
# calmodulin (CaM) [3] = biological target: T1, calmodulin (CaM); experiment: SPR (Biacore X100, CAPture chip), immobilised CaM, single-cycle kinetics, sequential model
# calmodulin (CaM) [4] = biological target: T1, calmodulin (CaM); experiment: optical biosensing (BLI, SPR), immobilised CaM
# calmodulin (CaM) [5] = biological target: T1, calmodulin (CaM); experiment: BLI, immobilised CaM, single-state model
# T2 sequence (P28482 whole entry): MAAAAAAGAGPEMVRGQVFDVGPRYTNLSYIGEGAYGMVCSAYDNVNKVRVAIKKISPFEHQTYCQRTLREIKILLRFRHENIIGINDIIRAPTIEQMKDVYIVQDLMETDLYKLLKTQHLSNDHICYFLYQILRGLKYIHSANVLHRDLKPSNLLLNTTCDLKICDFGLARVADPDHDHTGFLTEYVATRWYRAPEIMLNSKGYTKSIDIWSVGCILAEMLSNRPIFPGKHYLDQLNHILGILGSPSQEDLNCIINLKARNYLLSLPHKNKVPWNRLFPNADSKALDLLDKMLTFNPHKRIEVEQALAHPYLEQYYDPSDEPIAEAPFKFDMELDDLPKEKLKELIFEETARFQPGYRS
Kd (calmodulin (CaM) [1]),koff (calmodulin (CaM) [1]),kon (calmodulin (CaM) [1]),fold of apparent Kd against that measured for p38 [2],Kd (calmodulin (CaM) [3]),Kd (calmodulin (CaM) [4]),fold higher koff than unphosphorylated eNOS (calmodulin (CaM) [5]),Binder
0.92 nM,0.00011 s⁻¹,120000 M⁻¹ s⁻¹,~2 fold,0.72 nM,~1 nM,,"endothelial nitric oxide synthase (eNOS), purified, unphosphorylated (enzyme, bovine, UniProt P29473 1-1205, looked up, Expressed and purified 'as known in the art (22-24)'; also called unphosphorylated eNOS; purified eNOS) MGNLKSVGQEPGPPCGLGLGLGLGLCGKQGPASPAPEPSRAPAPATPHAPDHSPAPNSPTLTRPPEGPKFPRVKNWELGSITYDTLCAQSQQDGPCTPRCCLGSLVLPRKLQTRPSPGPPPAEQLLSQARDFINQYYSSIKRSGSQAHEERLQEVEAEVASTGTYHLRESELVFGAKQAWRNAPRCVGRIQWGKLQVFDARDCSSAQEMFTYICNHIKYATNRGNLRSAITVFPQRAPGRGDFRIWNSQLVRYAGYRQQDGSVRGDPANVEITELCIQHGWTPGNGRFDVLPLLLQAPDEAPELFVLPPELVLEVPLEHPTLEWFAALGLRWYALPAVSNMLLEIGGLEFSAAPFSGWYMSTEIGTRNLCDPHRYNILEDVAVCMDLDTRTTSSLWKDKAAVEINLAVLHSFQLAKVTIVDHHAATVSFMKHLDNEQKARGGCPADWAWIVPPISGSLTPVFHQEMVNYILSPAFRYQPDPWKGSATKGAGITRKKTFKEVANAVKISASLMGTLMAKRVKATILYASETGRAQSYAQQLGRLFRKAFDPRVLCMDEYDVVSLEHEALVLVVTSTFGNGDPPENGESFAAALMEMSGPYNSSPRPEQHKSYKIRFNSVSCSDPLVSSWRRKRKESSNTDSAGALGTLRFCVFGLGSRAYPHFCAFARAVDTRLEELGGERLLQLGQGDELCGQEEAFRGWAKAAFQASCETFCVGEEAKAAAQDIFSPKRSWKRQRYRLSTQAEGLQLLPGLIHVHRRKMFQATVLSVENLQSSKSTRATILVRLDTAGQEGLQYQPGDHIGICPPNRPGLVEALLSRVEDPPPPTESVAVEQLEKGSPGGPPPSWVRDPRLPPCTLRQALTFFLDITSPPSPRLLRLLSTLAEEPSEQQELETLSQDPRRYEEWKWFRCPTLLEVLEQFPSVALPAPLLLTQLPLLQPRYYSVSSAPNAHPGEVHLTVAVLAYRTQDGLGPLHYGVCSTWLSQLKTGDPVPCFIRGAPSFRLPPDPYVPCILVGPGTGIAPFRGFWQERLHDIESKGLQPAPMTLVFGCRCSQLDHLYRDEVQDAQERGVFGRVLTAFSREPDSPKTYVQDILRTELAAEVHRVLCLERGHMFVCGDVTMATSVLQTVQRILATEGDMELDEAGDVIGVLRDQQRYHEDIFGLTLRTQEVTSRIRTQSFSLQERHLRGAVPWAFDPPGPDTPGP"
2.7 nM,0.00012 s⁻¹,120000 M⁻¹ s⁻¹,,0.65 nM,~1 nM,3 fold,"ERK phosphorylated eNOS (enzyme, phosphorylated in vitro by ERK2 at S602, T46 and S58 (bovine eNOS numbering); apparent stoichiometry 2-3 phosphates per monomer) MGNLKSVGQEPGPPCGLGLGLGLGLCGKQGPASPAPEPSRAPAPATPHAPDHSPAPNSPTLTRPPEGPKFPRVKNWELGSITYDTLCAQSQQDGPCTPRCCLGSLVLPRKLQTRPSPGPPPAEQLLSQARDFINQYYSSIKRSGSQAHEERLQEVEAEVASTGTYHLRESELVFGAKQAWRNAPRCVGRIQWGKLQVFDARDCSSAQEMFTYICNHIKYATNRGNLRSAITVFPQRAPGRGDFRIWNSQLVRYAGYRQQDGSVRGDPANVEITELCIQHGWTPGNGRFDVLPLLLQAPDEAPELFVLPPELVLEVPLEHPTLEWFAALGLRWYALPAVSNMLLEIGGLEFSAAPFSGWYMSTEIGTRNLCDPHRYNILEDVAVCMDLDTRTTSSLWKDKAAVEINLAVLHSFQLAKVTIVDHHAATVSFMKHLDNEQKARGGCPADWAWIVPPISGSLTPVFHQEMVNYILSPAFRYQPDPWKGSATKGAGITRKKTFKEVANAVKISASLMGTLMAKRVKATILYASETGRAQSYAQQLGRLFRKAFDPRVLCMDEYDVVSLEHEALVLVVTSTFGNGDPPENGESFAAALMEMSGPYNSSPRPEQHKSYKIRFNSVSCSDPLVSSWRRKRKESSNTDSAGALGTLRFCVFGLGSRAYPHFCAFARAVDTRLEELGGERLLQLGQGDELCGQEEAFRGWAKAAFQASCETFCVGEEAKAAAQDIFSPKRSWKRQRYRLSTQAEGLQLLPGLIHVHRRKMFQATVLSVENLQSSKSTRATILVRLDTAGQEGLQYQPGDHIGICPPNRPGLVEALLSRVEDPPPPTESVAVEQLEKGSPGGPPPSWVRDPRLPPCTLRQALTFFLDITSPPSPRLLRLLSTLAEEPSEQQELETLSQDPRRYEEWKWFRCPTLLEVLEQFPSVALPAPLLLTQLPLLQPRYYSVSSAPNAHPGEVHLTVAVLAYRTQDGLGPLHYGVCSTWLSQLKTGDPVPCFIRGAPSFRLPPDPYVPCILVGPGTGIAPFRGFWQERLHDIESKGLQPAPMTLVFGCRCSQLDHLYRDEVQDAQERGVFGRVLTAFSREPDSPKTYVQDILRTELAAEVHRVLCLERGHMFVCGDVTMATSVLQTVQRILATEGDMELDEAGDVIGVLRDQQRYHEDIFGLTLRTQEVTSRIRTQSFSLQERHLRGAVPWAFDPPGPDTPGP"
